Results from patent publication US20090324622A1 (CELLDEX THERAPEUTICS, published 2009).

Key:
[1] = biological target: T1, human macrophage mannose receptor (human, UniProt P22897 19-1456); test: flow cytometry on cultured human DCs
T1 construct: whole, on cells; also called MR; MMR
T1 sequence (looked up): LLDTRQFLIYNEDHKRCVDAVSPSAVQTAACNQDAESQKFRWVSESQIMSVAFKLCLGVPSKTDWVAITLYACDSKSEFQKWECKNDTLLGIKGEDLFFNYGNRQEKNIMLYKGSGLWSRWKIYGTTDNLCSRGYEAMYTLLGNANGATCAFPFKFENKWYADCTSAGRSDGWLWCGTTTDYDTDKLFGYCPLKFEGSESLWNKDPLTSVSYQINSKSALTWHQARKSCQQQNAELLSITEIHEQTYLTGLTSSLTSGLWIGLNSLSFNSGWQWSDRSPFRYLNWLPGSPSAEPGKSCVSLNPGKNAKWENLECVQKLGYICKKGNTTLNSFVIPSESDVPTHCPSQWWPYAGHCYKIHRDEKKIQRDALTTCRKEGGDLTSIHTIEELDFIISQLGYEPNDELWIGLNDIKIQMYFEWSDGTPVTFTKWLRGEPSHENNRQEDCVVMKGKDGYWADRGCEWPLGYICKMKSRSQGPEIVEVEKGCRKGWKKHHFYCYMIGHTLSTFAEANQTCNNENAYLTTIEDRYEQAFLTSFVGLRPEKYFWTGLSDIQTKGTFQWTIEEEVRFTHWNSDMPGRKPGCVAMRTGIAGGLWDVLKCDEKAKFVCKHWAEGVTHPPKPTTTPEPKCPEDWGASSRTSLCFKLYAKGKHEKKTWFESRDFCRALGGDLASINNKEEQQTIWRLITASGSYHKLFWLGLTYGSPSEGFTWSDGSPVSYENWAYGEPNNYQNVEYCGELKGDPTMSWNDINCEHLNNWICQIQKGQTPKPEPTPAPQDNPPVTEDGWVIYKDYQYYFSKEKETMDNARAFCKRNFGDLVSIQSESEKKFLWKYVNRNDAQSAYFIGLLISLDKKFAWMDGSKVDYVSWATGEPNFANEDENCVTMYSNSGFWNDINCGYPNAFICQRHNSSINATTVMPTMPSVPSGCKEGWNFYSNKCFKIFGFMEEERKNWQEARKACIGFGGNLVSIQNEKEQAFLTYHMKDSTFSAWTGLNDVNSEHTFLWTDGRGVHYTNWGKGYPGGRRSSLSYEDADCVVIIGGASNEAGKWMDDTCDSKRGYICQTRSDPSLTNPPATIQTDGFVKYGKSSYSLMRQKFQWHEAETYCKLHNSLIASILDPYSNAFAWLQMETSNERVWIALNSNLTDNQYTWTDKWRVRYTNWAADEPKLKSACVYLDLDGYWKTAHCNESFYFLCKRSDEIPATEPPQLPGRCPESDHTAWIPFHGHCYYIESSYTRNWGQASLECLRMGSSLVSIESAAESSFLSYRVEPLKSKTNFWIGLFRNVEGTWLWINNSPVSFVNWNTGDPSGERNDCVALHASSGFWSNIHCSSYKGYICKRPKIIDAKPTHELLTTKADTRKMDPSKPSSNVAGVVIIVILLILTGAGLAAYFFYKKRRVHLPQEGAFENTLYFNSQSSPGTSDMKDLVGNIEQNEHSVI
Method: Monocyte-derived DCs were exposed either to B11 sfv-βhCG or βhCG-B11 in PBS-BSA buffer for 45 minutes at 37° C. and allowed to mature overnight in the presence of CD40L. Harvested DCs were then washed and stained with mouse anti-βhCG followed by goat anti-hu IgG (Fc)-PE conjugate. Stained cells were analyzed on a flow cytometer (BD-LSR). Approximately, 10,000 events were collected for each sample. Background autofluorescence and isotype matched antibody staining served as controls. Based on the mean fluorescence intensity (MFI) (data not shown), B11 sfv-βhCG binding to MR expressed on DC is similar to that of βhCG-B11.

[2] = biological target: T1, human macrophage mannose receptor; test: in situ staining of MR on human tissue cryosections (immunohistochemistry)
Text: Using the anti-MR antibody as a probe, in situ staining of MR on human dermal DCs and macrophages in section of various human tissues was examined. Human tissue cryosections were stained with anti-MR human antibody B11. DCs present in the dermal layer of the skin were clearly labeled (data not shown) with the B11 antibody. It is noted that there was binding to DCs in the dermal layer of skin. […] These studies have been repeated with the βhCG-B11 with identical results.

B1: B11sfv-βhCG construct (single chain B11 antibody, VL and VH, with βhCG fused to the carboxy terminus) (scFv)
scFv: DIQMTQSPSSLSASVGDRVTITCRASQGISRWLAWYQQKPEKAPKSLIYAASSLQSGVPSRFSGSGSGTDFTLTISGLQPEDFATYYCQQYNSYPRTFGQGTKVEIKGGGGSGGGGSGGGGSEVQLVQSGAEVKKPGESLRISCKGSGDSFTTYWIGWVRQMPGKGLEWMGIIYPGDSDTIYSPSFQGQVTISADKSISTAYLQWSSLKASDTAMYYCTRGDRGVDYWGQGTLVTVSSGSTGGGGSSSKEPLRPRCRPINATLAVEKEGCPVCITVNTTICAGYCPTMTRVLQGVLPALPQVVCNYRDVRFESIRLPGCPRGVNPVVSYAVALSCQCALCRRSTTDCGGPKDHPLTCDDPRFQDSSSSKAPPPSLPSPSRLPGPSDTPILPQ
notes: also called B11 scfv-βhCG; pB11sfv-βhCG
B1: binds [1].

B2: βhCG-B11 construct (whole human anti-mannose receptor antibody B11 with βhCG fused to the CH3 end of the heavy chain) (antibody)
heavy: not shown
light: DIQMTQSPSSLSASVGDRVTITCRASQGISRWLAWYQQKPEKAPKSLIYAASSLQSGVPSRFSGSGSGTDFTLTISGLQPEDFATYYCQQYNSYPRTFGQGTKVEIK
notes: Antibody-antigen fusion expressed in CHO cells; also called B11-βhCG vaccine conjugate; B11-βhCG conjugate
B2: binds [1].

B3: human monoclonal antibody B11 (anti-mannose receptor) (antibody, V domains shown)
VH: EVQLVQSGAEVKKPGESLRISCKGSGDSFTTYWIGWVRQMPGKGLEWMGIIYPGDSDTIYSPSFQGQVTISADKSISTAYLQWSSLKASDTAMYYCTRGDRGVDYWGQGTLVTVSS
VL: DIQMTQSPSSLSASVGDRVTITCRASQGISRWLAWYQQKPEKAPKSLIYAASSLQSGVPSRFSGSGSGTDFTLTISGLQPEDFATYYCQQYNSYPRTFGQGTKVEIK
notes: Fully human whole antibody with a kappa light chain; also called B11 mAb; anti-MR B11 HuMAb
B3: binds [2].
